Laboratory results: publication PMC13426413 (Science Advances, 2026)
Ends that are not written are not given here.

Experiments:
[1] = molecular target: ^19F Tom70:Orf9b_(Helix) complex (human | SARS-CoV-2, UniProt O94826 108-608, 5-fluoro-tryptophan at W169 and W523); assay: NMR titration
[2] = molecular target: Tom70:Orf9b_(Helix) complex (human | SARS-CoV-2, UniProt O94826 108-608); assay: ITC
[3] = molecular target: T1, human Tom70 (residues 108–608) (human, UniProt O94826 108-608); assay: cryo-EM structure
T1 sequence: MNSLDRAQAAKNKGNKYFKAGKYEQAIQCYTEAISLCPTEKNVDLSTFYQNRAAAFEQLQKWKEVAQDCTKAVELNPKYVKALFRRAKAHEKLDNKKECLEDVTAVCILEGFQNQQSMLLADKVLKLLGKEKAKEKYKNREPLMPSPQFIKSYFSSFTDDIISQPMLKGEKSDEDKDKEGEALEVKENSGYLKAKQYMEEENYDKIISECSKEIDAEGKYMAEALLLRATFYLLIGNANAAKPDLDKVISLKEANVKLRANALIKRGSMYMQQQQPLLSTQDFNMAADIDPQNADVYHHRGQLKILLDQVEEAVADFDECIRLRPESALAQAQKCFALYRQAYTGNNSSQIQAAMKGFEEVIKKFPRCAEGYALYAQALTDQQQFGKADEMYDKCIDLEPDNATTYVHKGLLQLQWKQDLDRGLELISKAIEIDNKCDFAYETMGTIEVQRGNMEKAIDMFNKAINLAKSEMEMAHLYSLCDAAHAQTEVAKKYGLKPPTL

[4] = molecular target: T2, ^19F-labeled Tom70 (5F-tryptophan, residues 108–608) (human, UniProt O94826 108-608, 5-fluoro-tryptophan at W169 and W523); assay: NMR titration
T2 sequence: T1 sequence

[5] = molecular target: T1, human Tom70 (residues 108–608); assay: ITC
[6] = molecular target: Tom70:Hsp90_(EEVD) complex (human, UniProt O94826 108-608); assay: ITC

Measured: binding result

YDTSRMEEVD-OH [Hsp90_(EEVD) peptide]
binds: [1] | [2] | [3]

IILRLGSPLSLNMARKTLNSLEDKAFQLTPIAVQY [Orf9b_(Helix) peptide]
binds: [4] | [5] | [6]
